The numbers were not newly measured in paper PMC10878502, which cites them from elsewhere.

By Kd is commonly meant a measure of binding affinity in units of concentration.

In series [1] the target is ASPP1 (Homo sapiens) (UniProt Q96KQ4).
The target of series [2] is ASPP2 (Homo sapiens) (UniProt Q13625).
The target in series [3] is iASPP ANK-SH3 (Homo sapiens) (UniProt Q8WUF5).
Series [4] addresses ASPP2 ANK-SH3 (Homo sapiens) (UniProt Q13625).

Sequence of ASPP2 (Homo sapiens) (Q13625 whole entry): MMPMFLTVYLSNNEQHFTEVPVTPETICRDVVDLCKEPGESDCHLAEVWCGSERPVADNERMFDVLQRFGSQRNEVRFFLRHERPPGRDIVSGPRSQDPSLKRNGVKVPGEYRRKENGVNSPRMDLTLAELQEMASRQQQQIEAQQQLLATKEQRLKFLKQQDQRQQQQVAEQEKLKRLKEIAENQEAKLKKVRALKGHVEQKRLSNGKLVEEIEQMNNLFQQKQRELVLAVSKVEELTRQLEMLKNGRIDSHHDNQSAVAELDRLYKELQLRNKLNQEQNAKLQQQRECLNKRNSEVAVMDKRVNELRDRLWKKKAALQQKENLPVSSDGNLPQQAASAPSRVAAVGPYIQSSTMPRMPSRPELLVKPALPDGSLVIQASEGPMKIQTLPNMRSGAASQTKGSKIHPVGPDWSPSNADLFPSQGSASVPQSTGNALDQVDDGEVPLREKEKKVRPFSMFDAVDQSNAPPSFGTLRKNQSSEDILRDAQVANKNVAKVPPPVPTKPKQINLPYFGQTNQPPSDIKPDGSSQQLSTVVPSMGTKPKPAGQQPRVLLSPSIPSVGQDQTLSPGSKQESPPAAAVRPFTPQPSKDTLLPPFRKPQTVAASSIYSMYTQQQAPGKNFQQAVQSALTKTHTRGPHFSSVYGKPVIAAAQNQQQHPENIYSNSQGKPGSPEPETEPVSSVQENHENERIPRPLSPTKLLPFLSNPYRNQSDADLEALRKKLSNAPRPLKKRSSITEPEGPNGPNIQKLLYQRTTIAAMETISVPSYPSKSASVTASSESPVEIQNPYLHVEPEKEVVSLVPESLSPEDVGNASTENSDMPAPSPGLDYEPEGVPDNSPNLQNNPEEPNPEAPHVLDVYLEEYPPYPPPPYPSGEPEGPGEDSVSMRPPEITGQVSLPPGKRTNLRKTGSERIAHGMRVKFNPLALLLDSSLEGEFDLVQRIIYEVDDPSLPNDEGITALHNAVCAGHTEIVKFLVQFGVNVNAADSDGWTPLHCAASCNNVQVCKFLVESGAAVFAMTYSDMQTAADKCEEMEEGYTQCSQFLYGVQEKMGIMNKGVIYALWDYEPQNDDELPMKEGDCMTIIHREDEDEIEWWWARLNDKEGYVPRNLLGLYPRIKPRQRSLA
Sequence of iASPP ANK-SH3 (Homo sapiens) (Q8WUF5 608-828): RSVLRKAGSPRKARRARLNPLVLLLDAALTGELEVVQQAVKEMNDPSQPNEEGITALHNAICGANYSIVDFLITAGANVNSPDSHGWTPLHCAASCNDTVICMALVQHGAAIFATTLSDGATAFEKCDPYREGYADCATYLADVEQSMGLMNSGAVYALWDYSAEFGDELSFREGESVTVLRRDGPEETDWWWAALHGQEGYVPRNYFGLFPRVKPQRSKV
Sequence of ASPP2 ANK-SH3 (Homo sapiens) (Q13625 892-1128): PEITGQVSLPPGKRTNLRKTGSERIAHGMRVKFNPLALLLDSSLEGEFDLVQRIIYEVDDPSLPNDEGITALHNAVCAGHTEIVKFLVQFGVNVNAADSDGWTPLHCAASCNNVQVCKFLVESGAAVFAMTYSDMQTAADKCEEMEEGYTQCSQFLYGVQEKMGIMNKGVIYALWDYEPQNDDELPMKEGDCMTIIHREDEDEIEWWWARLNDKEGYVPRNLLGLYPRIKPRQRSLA
Sequence of ASPP1 (Homo sapiens) (Q96KQ4 whole entry): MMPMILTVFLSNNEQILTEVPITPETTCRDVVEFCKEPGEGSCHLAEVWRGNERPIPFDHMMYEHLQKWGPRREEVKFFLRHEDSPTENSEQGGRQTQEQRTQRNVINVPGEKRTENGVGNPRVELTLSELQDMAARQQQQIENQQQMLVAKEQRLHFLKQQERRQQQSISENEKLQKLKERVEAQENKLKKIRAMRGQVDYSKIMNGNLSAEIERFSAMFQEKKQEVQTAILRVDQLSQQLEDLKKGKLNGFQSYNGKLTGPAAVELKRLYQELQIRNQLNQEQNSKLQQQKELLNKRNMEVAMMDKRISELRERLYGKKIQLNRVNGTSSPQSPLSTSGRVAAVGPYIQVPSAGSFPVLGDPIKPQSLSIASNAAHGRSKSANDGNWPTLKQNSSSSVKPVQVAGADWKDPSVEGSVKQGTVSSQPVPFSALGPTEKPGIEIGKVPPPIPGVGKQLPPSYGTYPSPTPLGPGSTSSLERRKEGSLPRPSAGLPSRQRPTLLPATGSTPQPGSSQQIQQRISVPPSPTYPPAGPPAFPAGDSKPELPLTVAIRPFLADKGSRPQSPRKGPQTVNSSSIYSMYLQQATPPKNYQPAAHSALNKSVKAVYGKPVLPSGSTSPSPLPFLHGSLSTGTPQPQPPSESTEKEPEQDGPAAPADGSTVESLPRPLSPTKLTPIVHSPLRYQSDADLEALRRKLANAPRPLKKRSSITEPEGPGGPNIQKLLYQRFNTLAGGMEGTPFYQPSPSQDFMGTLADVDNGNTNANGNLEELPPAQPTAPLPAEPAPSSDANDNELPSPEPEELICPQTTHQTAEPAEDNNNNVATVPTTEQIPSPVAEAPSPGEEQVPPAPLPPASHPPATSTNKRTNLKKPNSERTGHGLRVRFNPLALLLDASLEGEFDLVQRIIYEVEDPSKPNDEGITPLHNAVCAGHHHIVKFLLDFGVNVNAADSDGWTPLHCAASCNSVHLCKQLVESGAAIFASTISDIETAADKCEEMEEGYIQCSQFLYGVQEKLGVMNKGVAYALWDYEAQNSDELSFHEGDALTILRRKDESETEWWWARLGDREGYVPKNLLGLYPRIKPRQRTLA

With p53 (from UniProt P04637), the Kd in series [1] was 500 nM; in series [2], 5000 nM.

For the substance p53 DBD (from UniProt P04637), the figures for the dissociation constant Kd in series [3] and in series [4] were 23.3 nM and 26.4 nM, respectively.
